Laboratory results reported in US20230167165A1.

Molecular target: monomeric human protein of therapeutic interest (antigen of Examples 1-7) (human)
Experiment: competition flow cytometry; control scFv-Fc supernatant preincubated 15 min with 10 nM labeled antigen, then yeast displaying parental scFv added

Substance unrelated scFv-Fc (control) (Fc fusion) has a Q2 (% of cells displaying the parental scFv that bind antigen in presence of the competing scFv-Fc) of 69.9%.
